doi:10.1101/546648 (bioRxiv, 2019)

Target: the molecule itself
Assay: crystal structure

B1: Homo sapiens REXO2 (enzyme)
chain: MAAGESMAQRMVWVDLEMTGLDIEKDQIIEMACLITDSDLNILAEGPNLIIKQPDELLDSMSDWCKEHHGKSGLTKAVKESTITLQQAEYEFLSFVRQQTPPGLCPLAGNSVHEDKKFLDKYMPQFMKHLHYRIIDVSTVKELCRRWYPEEYEFAPKKAASHRALDDISESIKELQFYRNNIFKKKIDEKKRKIIENGENEKTVS
B1: binds.
